B1: IL-4: cytokine (protein, UniProt P05112 25-153, looked up)
Interleukin-4: HKCDITLQEIIKTLNSLTEQKTLCTELTVTDIFAASKNTTEKETFCRAATVLRQFYSHHEKDTRCLGATAQQFHRHKQLIRFLKRLDRNLWGLAGLNSCPVKEANQSTLENFLERLKTIMREKYSKCSS
B2: IL-10: cytokine (protein, UniProt P22301 19-178, looked up)
Interleukin-10: SPGQGTQSENSCTHFPGNLPNMLRDLRDAFSRVKTFFQMKDQLDNLLLKESLLEDFKGYLGCQALSEMIQFYLEEVMPQAENQDPDIKAHVNSLGENLKTLRLRLRRCHRFLPCENKSKAVEQVKNAFNKLQEKGIYKAMSEFDIFINYIEAYMTMKIRN
B3: IL-23: cytokine (protein, UniProt Q9NPF7 20-189; P29460 23-328, looked up)
Interleukin-23 subunit alpha: RAVPGGSSPAWTQCQQLSQKLCTLAWSAHPLVGHMDLREEGDEETTNDVPHIQCGDGCDPQGLRDNSQFCLQRIHQGLIFYEKLLGSDIFTGEPSLLPDSPVGQLHASLLGLSQLLQPEGHHWETQQIPSLSPSQPWQRLLLRFKILRSLQAFVAVAARVFAHGAATLSP
Interleukin-12 subunit beta: IWELKKDVYVVELDWYPDAPGEMVVLTCDTPEEDGITWTLDQSSEVLGSGKTLTIQVKEFGDAGQYTCHKGGEVLSHSLLLLHKKEDGIWSTDILKDQKEPKNKTFLRCEAKNYSGRFTCWWLTTISTDLTFSVKSSRGSSDPQGVTCGAATLSAERVRGDNKEYEYSVECQEDSACPAAEESLPIEVMVDAVHKLKYENYTSSFFIRDIIKPDPPKNLQLKPLKNSRQVEVSWEYPDTWSTPHSYFSLTFCVQVQGKSKREKKDRVFTDKTSATVICRKNASISVRAQDRYYSSSWSEWASVPCS

System: DC2.4 cells and mouse GM-CSF-dependent BMDC
Test: Influence of cytokines on expression of cell surface HSP90 (FACS with 6H8)
Type: cell-based
Settings: BMDC, cytokines 100 ng/ml or 10 ng/ml
Protocol: In view of the possibility that cytokines are variation factors for the expression of cell surface HSP90, the influences of various cytokines on the expression of cell surface HSP90 were examined as described below.
The solid bars indicate the MFI for BMDC incubated in the presence of high concentrations of IFNs (as in FIG. 5B) or other cytokines (100 ng/ml); the grey bars indicate the MFI for BMDC incubated in the presence of low concentrations of IFNs (as in FIG. 5B) or other cytokines (10 ng/ml). The open bars indicate the MFI for BMDC incubated in the absence of the cytokines as negative controls.

Row | Molecule | MFI of cell surface HSP90 after cytokine treatment versus negative control
1 | B1 | no significant difference from the negative control
2 | B2 | no significant difference from the negative control
3 | B3 | no significant difference from the negative control

Reference: patent publication US20110280881A1, “NOVEL ANTI-HSP90 MONOCLONAL ANTIBODY” (RIKEN, priority 2010, published 2011)
